Data set [1] relates to A549 lung carcinoma cells. In words: xenograft model of non-small cell lung cancer (A549) in nude mice. It is filed as in vivo. Conditions: FIG. 9. The procedure:
Cells from a non-small cell lung cancer cell line (A549) were grown in nine T175 flasks in F12K media and 10% fetal calf serum until the cells were confluent. 4.5×10^6 cells ([…]) were injected into the right rear flank of 4-5 week old male homozygous (nu/nu) nude mice (Harlan, Madison Wis.). Tumors were allowed to grow to an average size of ≧75 mm^3 before treatments were initiated. Animals of each tumor type, with the properly-sized tumors, were divided into treatment groups, including one set of animals treated weekly with vehicle (phosphate buffered saline, PBS). The vehicle and the test agents were all administered by intraperitoneal injection. Each animal was weighed twice a week during treatment. The tumors were measured twice weekly using calipers. Tumor volume (mm^3) was determined by using the formula for an ellipsoid sphere:
[formula] The percent tumor growth inhibition was calculated using the formula:
[formula] […] The efficacy is similar to that of an approved cancer drug, cisplatin.

The test system of data set [2] is DU145 human prostate cancer cells. As to the kind of experiment: xenograft model of prostate cancer (DU145) in nude mice. The class given is in vivo. The procedure: Prostate cancer cells (DU145) were implanted into the right rear flank of 5-6 week old male homozygous (nu/nu) nude mice (Harlan). Tumors were allowed to grow to an average size of ≧75 mm^3 before treatments were initiated. Animals of each tumor type, with the properly-sized tumors, were divided into treatment groups. All the test compounds were diluted in PBS (drug vehicle), and one set of animals treated with vehicle (PBS) on the schedule with greatest frequency in the current study served as the negative control. All RNase treatments in the xenograft model are administered by intraperitoneal injection. Treatment with all agents is ongoing throughout the entire experiment (e.g., a 6 week long experiment with 1×wk dosing results in 6 total doses). Tumors were measured twice weekly using calipers. Tumor volume (mm^3) was determined by using the equation 4. The percent tumor growth inhibition was calculated using equation 5.

For a further data set, the target named is T1, human RI (Homo sapiens, UniProt P13489).
T1 sequence (P13489 whole entry, looked up): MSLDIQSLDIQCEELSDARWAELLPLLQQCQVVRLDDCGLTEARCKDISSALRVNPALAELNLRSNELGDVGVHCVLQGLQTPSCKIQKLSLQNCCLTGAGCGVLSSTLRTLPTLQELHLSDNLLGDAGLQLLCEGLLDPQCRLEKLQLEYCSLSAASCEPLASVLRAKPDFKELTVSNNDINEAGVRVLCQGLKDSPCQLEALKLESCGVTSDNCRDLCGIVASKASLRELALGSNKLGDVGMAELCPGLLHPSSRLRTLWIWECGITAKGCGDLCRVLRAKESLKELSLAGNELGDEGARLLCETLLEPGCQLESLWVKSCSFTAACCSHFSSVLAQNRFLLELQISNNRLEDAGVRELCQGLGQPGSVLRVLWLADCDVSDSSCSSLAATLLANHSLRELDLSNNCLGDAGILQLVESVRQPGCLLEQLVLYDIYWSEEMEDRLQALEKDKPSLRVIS
In words: Kd^c | nM. The procedure: Table printed on a drawing sheet, FIGURE 2
Head of the field: Kd^c | nM
Footnotes: ^aValues of Tm (± 2 °C) were determined in PBS by UV spectroscopy. The Tm values for G88R RNase and ONC in PBS are from Leland et al. (1998, Proc. Natl. Acad. Sci. 98:10407-10412). / ^bValues of kcat/KM (± SE) are for the catalysis of 6-FAM~dArU(dA)2~6-TAMRA cleavage at room temperature in 0.10 M MES-NaOH buffer (pH 6.0) containing NaCl (0.10 M) except for the kcat/KM (± SE) of ONC . The kcat/KM value for ONC is for the catalysis of 6-FAM~dArUdGdA~6-TAMRA cleavage at room temperature in 0.020 M MES-NaOH buffer (pH 6.0) containing NaCl (0.010 M). / ^cValues of Kd (± SE) are for the complex with human RI at room temperature. The Kd value for RNase A is from Lee et al. (1989, Biochem. 28:225-230). The Kd value for G88R RNase A is from Lavis et al. (2007, Anal. Biochem. 79:6775-6782). The Kd value for ONC is an estimate from Wu et al. (1993, J. Biol. Chem. 268:10686-10693). / ^dValues of IC50 (± SE) are for incorporation of [methyl-^3H]thymidine into the DNA of K-562 cells. […]
First copying reader's note: The table body is printed very coarsely, so many digits are uncertain; the mark ^h in the (kcat/KM)cyto column has no footnote on the sheet, and the IC50 footnote is lettered d.
Where the first naming reader finds the target: footnote: Values of Kd (± SE) are for the complex with human RI at room temperature.

In another data set the target is T2, hRI (Homo sapiens, UniProt P13489).
T2 sequence (P13489 1-461): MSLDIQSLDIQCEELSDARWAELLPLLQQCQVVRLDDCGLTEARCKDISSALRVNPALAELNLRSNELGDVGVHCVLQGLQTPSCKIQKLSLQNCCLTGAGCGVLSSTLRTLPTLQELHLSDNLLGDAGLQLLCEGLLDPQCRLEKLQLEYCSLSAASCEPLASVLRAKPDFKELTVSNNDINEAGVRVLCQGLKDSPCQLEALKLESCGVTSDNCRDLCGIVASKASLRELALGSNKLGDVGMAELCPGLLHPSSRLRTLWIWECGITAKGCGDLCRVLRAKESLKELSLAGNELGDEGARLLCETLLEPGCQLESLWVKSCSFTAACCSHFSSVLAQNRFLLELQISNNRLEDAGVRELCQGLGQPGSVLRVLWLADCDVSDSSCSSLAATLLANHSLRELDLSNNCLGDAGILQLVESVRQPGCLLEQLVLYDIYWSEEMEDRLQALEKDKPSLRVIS
Particulars: value used as basis of the competition assay; Rutkoski et al., 2005; cited from earlier work.

Usually Kd stands for the concentration at which binding is half-saturated.

Turning to `N.N.[Cl][Pt][Cl]` [cisplatin, reference compound], in data set [1] (6 mg/kg weekly, compared with 60 kDa mPEG2 G89C RNase 1), the “efficacy in reducing tumor volume” value is reported as “similar”.

Regarding `CC(=O)O[C@@]12CO[C@@H]1C[C@H](O)[C@@]1(C)C(=O)[C@H](O)C3=C(C)[C@@H](OC(=O)[C@H](O)[C@@H](NC(=O)OC(C)(C)C)c4ccccc4)C[C@@](O)([C@@H](OC(=O)c4ccccc4)[C@H]21)C3(C)C` [docetaxel, reference compound], the tumor volume entry in data set [2] (8 mg/kg weekly, compared to a control, FIG. 5) was “decrease tumor volumes to similar levels”.

B1: 20 kDa mPEG2-G88C RNase A: G88C RNase A modified with 20 kDa-mPEG2 maleimide (branched) (conjugate, UniProt P61823 27-150, looked up, variant G88C)
Ribonuclease pancreatic: KETAAAKFERQHMDSSTSAASSSNYCNQMMKSRNLTKDRCKPVNTFVHESLADVQAVCSQKNVACKNGQTNCYQSYSTMSITDCRETCSSKYPNCAYKTTQANKHIIVACEGNPYVPVHFDASV
modifications: 20 kDa branched mPEG2 maleimide
Regarding B1, in data set [2] (75 mg/kg, 1 time per week, intraperitoneal, FIG. 5), the tumor volume entry is reported as “reduce tumor volumes”. Besides, in the data set with human RI, the affinity, expressed as Kd, was 37 ± 2.4 nM.

B2: fluorophore-labeled G88R variant of RNase A: fluorophore-labeled G88R variant of RNase A used as probe in the ribonuclease-inhibitor binding assay (conjugate, UniProt P61823 27-150, looked up, variant G88R)
Ribonuclease pancreatic: KETAAAKFERQHMDSSTSAASSSNYCNQMMKSRNLTKDRCKPVNTFVHESLADVQAVCSQKNVACKNGQTNCYQSYSTMSITDCRETRSSKYPNCAYKTTQANKHIIVACEGNPYVPVHFDASV
modifications: fluorophore label
On to B2, for which the Kd with hRI was 1.4 nM.

B3: 2 kDa mPEG-G88C RNase A: G88C RNase A modified with 2 kDa-mPEG maleimide (conjugate, UniProt P61823 27-150, looked up, variant G88C)
Ribonuclease pancreatic: KETAAAKFERQHMDSSTSAASSSNYCNQMMKSRNLTKDRCKPVNTFVHESLADVQAVCSQKNVACKNGQTNCYQSYSTMSITDCRETCSSKYPNCAYKTTQANKHIIVACEGNPYVPVHFDASV
modifications: 2 kDa mPEG maleimide
notes: G88C RNase A modified with 2 kDa-mPEG maleimide
With B3, the “toxicity of the treatment as reflected by average body weight” value in data set [2] (15 mg/kg twice weekly, intraperitoneal, FIG. 4B) is “lack of toxicity”. Also, the tumor volume result in data set [2] (15 mg/kg, 2 times per week, intraperitoneal, FIG. 4) is reported as “reduction in tumor volume over time”; in data set [2] (15 mg/kg, 2 times per week, intraperitoneal, FIG. 4, listed as 2 kDa mPEG G88C RNase A), “reduce tumor volumes”.

B4: 60 kDa mPEG2-G89C RNase 1: G89C RNase 1 modified with 60 kDa-mPEG2 maleimide (branched) (conjugate, UniProt P07998 29-156, looked up, variant G89C)
Ribonuclease pancreatic: KESRAKKFQRQHMDSDSSPSSSSTYCNQMMRRRNMTQGRCKPVNTFVHEPLVDVQNVCFQEKVTCKNGQGNCYKSNSSMHITDCRLTNCSRYPNCAYRTSPKERHIIVACEGSPYVPVHFDASVEDST
modifications: 60 kDa branched mPEG2 maleimide
For the molecule B4, in data set [1] (75 mg/kg weekly, intraperitoneal, versus control), the tumor volume result is on record as “decreases tumor volume”.
